Test results reported in the supplement of paper PMC7877785.
± gives the uncertainty stated by the source.

Test: self-splicing fitness, log relative to wild type (ln ratio); higher = more splicing; Tetrahymena group I intron in knt gene, E. coli kanamycin selection, DiMSum; sequences stand for … in CUCUCU…GGAGGGAAAAGUUAUCAGGCAUGCACCUGGUAGCUAGUCUUUAAACCAAUAGAUUGCAUCGGUUUAAAAGGCAAGACCGUCAAAUUGCGGGAAAGGGGUCAACAGCCGUUCAGUACCAAGUCUCAGGGGAAACUUUGAGAUGGCCUUGCAAAGGGUAUGGUAAUAAGCUGACGGACAUGGUCCUAACCACGCAGCCAAGUCCUAAGUCAACAGAUCUUCUGUUGAUAUGGAUGCAGUUCACAGACUAAAUGUCGGUCGGGGAAGAUGUAUUCUUCUCAUAAGAUAUAGUCGGACCUCUCCUUAAUGGGAGCUAGCGGAUGAAGUGAUGCAACACUGGAGCCGCUGGGAACUAAUUUGUAUGCGAAAGUAUAUUGAUUAGUUUUGGAGUACUCGUGGUCG
Procedure, shortened: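 The eight P1ex-region nucleotides of an intron in the knt kanamycin-resistance gene on pET-22b(+) were all randomised and the library put into E. coli BL21(DE3). Six replicate transformations were grown overnight at 37°C or 30°C on LB agar with or without 25 μg/mL kanamycin, together with 100 μg/mL carbenicillin, 50 μM IPTG and 0.2% rhamnose. Colonies were pooled and amplicon-sequenced on an Illumina HiSeq 2500. Fitness from DiMSum is the error-weighted combination of wild-type-normalised replicate fold changes, kanamycin over none.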

| Sequence | self-splicing fitness (ln) (30 °C) | self-splicing fitness (ln) (37 °C) |
| --- | --- | --- |
| UCUUAGCAAUAUUACGUCAU | -1.86 ± 0.32 |  |
| UCUUAGCAAUAUUACGUGAU | -2.43 ± 0.28 | -2.01 ± 0.38 |
| UCUUAGCAAUAUUACGUGUG | -2.13 ± 0.13 | -0.484 ± 0.099 |
| UGAAAGCAAUAUUACGAACA | -0.213 ± 0.064 | 0.349 ± 0.08 |
| UGAAAGCAAUAUUACGACAA | 0.219 ± 0.1 | -0.111 ± 0.13 |
| UGAAAGCAAUAUUACGACGG | -0.788 ± 0.1 | -0.64 ± 0.1 |
| UGAAAGCAAUAUUACGAGAG | -4.15 ± 0.33 | -1.61 ± 0.14 |
| UGAAAGCAAUAUUACGAUCC | -0.303 ± 0.14 | 0.92 ± 0.18 |
| UGAAAGCAAUAUUACGCCAA | -1.13 ± 0.15 | -0.806 ± 0.18 |
| UGAAAGCAAUAUUACGCUGG | -2.59 ± 0.16 | -1.27 ± 0.19 |
| UGAAAGCAAUAUUACGGAAU | -3.12 ± 0.18 | -0.0346 ± 0.15 |
| UGAAAGCAAUAUUACGGACG | -0.186 ± 0.084 | 0.54 ± 0.12 |
| UGAAAGCAAUAUUACGGAGU | -3.82 ± 0.28 | -2.84 ± 0.19 |
| UGAAAGCAAUAUUACGGAUA | -1.56 ± 0.13 | -1.1 ± 0.14 |
| UGAAAGCAAUAUUACGGCCU | -0.0439 ± 0.16 | 0.493 ± 0.18 |
| UGAAAGCAAUAUUACGGCGC | -1.78 ± 0.21 | -0.486 ± 0.23 |
| UGAAAGCAAUAUUACGGCGG | -1.03 ± 0.085 | -0.221 ± 0.14 |
| UGAAAGCAAUAUUACGGCUU | -1.62 ± 0.13 | -1.81 ± 0.2 |
| UGAAAGCAAUAUUACGGGCU | -2.04 ± 0.16 | -1.97 ± 0.27 |
| UGAAAGCAAUAUUACGGGGA | -1.92 ± 0.21 | -0.977 ± 0.19 |
| UGAAAGCAAUAUUACGGUCA | -0.166 ± 0.077 | 0.339 ± 0.1 |
| UGAAAGCAAUAUUACGUCCU | -0.649 ± 0.091 | -0.195 ± 0.081 |
| UGAAAGCAAUAUUACGUCGG | -1.12 ± 0.065 | -0.446 ± 0.082 |
| UGAAAGCAAUAUUACGUGUC | -0.712 ± 0.15 | -2.32 ± 0.21 |
| UGACAGCAAUAUUACGAAAA | -2.4 ± 0.35 | -1.29 ± 0.19 |
| UGACAGCAAUAUUACGAAUG | -0.535 ± 0.086 | -0.604 ± 0.1 |
| UGACAGCAAUAUUACGACAG | -0.934 ± 0.065 | 0.0335 ± 0.084 |

| Sequence | self-splicing fitness (ln) (30 °C) | self-splicing fitness (ln) (37 °C) |
| --- | --- | --- |
| UGACAGCAAUAUUACGACGU | -1.48 ± 0.099 | -0.473 ± 0.13 |
| UGACAGCAAUAUUACGAGAG | -3.08 ± 0.14 | -1.75 ± 0.11 |
| UGACAGCAAUAUUACGAGUA | -2.37 ± 0.17 | -0.712 ± 0.11 |
| UGACAGCAAUAUUACGAGUC | -3.94 ± 0.23 | -3.33 ± 0.32 |
| UGACAGCAAUAUUACGCAUG | -1.03 ± 0.055 | -0.328 ± 0.061 |
| UGACAGCAAUAUUACGCGAA | -1.32 ± 0.12 | -0.476 ± 0.14 |
| UGACAGCAAUAUUACGGAGA | -3.83 ± 0.29 | -1.98 ± 0.15 |
| UGACAGCAAUAUUACGGGGG | -2.61 ± 0.19 | -2.93 ± 0.2 |
| UGACAGCAAUAUUACGGUGA | -0.731 ± 0.052 | 0.000318 ± 0.071 |
| UGACAGCAAUAUUACGUAGU | -3 ± 0.17 | -1.22 ± 0.14 |
| UGACAGCAAUAUUACGUCAG | -2.12 ± 0.096 | -1.75 ± 0.11 |
| UGACAGCAAUAUUACGUCCU | -0.124 ± 0.076 | 0.379 ± 0.099 |
| UGACAGCAAUAUUACGUCUA | -0.75 ± 0.09 | -0.464 ± 0.098 |
| UGACAGCAAUAUUACGUGCC | -1.3 ± 0.12 | -1.58 ± 0.15 |
| UGACAGCAAUAUUACGUGUC | -3.44 ± 0.16 | -2.98 ± 0.16 |
| UGACAGCAAUAUUACGUUGC | -3.03 ± 0.2 | -2.89 ± 0.23 |
| UGAGAGCAAUAUUACGAAAU | -2.66 ± 0.22 | -1.75 ± 0.32 |
| UGAGAGCAAUAUUACGACGC | -1.61 ± 0.35 |  |
| UGAGAGCAAUAUUACGAUCU | -2.49 ± 0.45 | -1.1 ± 0.45 |
| UGAGAGCAAUAUUACGAUGU | -3.27 ± 0.25 |  |
| UGAGAGCAAUAUUACGCAAC |  | -1.88 ± 0.47 |
| UGAGAGCAAUAUUACGCAAU |  | -3 ± 0.43 |
| UGAGAGCAAUAUUACGCACG | -2.77 ± 0.19 | -0.671 ± 0.2 |
| UGAGAGCAAUAUUACGCAGA | -3.1 ± 0.34 |  |
| UGAGAGCAAUAUUACGCGAA | -4.25 ± 0.4 | -1.53 ± 0.28 |
| UGAGAGCAAUAUUACGCGUU | -3.23 ± 0.2 | -3.69 ± 0.34 |
| UGAGAGCAAUAUUACGGAUA |  | -2.5 ± 0.26 |

| Sequence | self-splicing fitness (ln) (30 °C) | self-splicing fitness (ln) (37 °C) |
| --- | --- | --- |
| UGAGAGCAAUAUUACGGCAA | -1.61 ± 0.33 | -1.15 ± 0.18 |
| UGAGAGCAAUAUUACGGGAG | -3.96 ± 0.29 | -1.93 ± 0.21 |
| UGAGAGCAAUAUUACGGGCG | -2.04 ± 0.21 | -0.434 ± 0.19 |
| UGAGAGCAAUAUUACGGUGC | -2.02 ± 0.21 |  |
| UGAGAGCAAUAUUACGGUGG | -3.4 ± 0.17 | -2.82 ± 0.2 |
| UGAGAGCAAUAUUACGUCCA | -1.04 ± 0.14 | -0.218 ± 0.17 |
| UGAGAGCAAUAUUACGUUGC | -2.35 ± 0.22 | -1.06 ± 0.33 |
| UGAUAGCAAUAUUACGAACA | -0.502 ± 0.18 | 0.324 ± 0.26 |
| UGAUAGCAAUAUUACGACGA | -0.476 ± 0.16 | 0.0569 ± 0.18 |
| UGAUAGCAAUAUUACGAGCC | -3.7 ± 0.47 |  |
| UGAUAGCAAUAUUACGAUAA | -2.12 ± 0.16 | -0.841 ± 0.17 |
| UGAUAGCAAUAUUACGAUGU |  | -2.04 ± 0.34 |
| UGAUAGCAAUAUUACGAUUG | -0.719 ± 0.12 | -0.301 ± 0.15 |
| UGAUAGCAAUAUUACGCACA | 0.0791 ± 0.086 | -0.216 ± 0.1 |
| UGAUAGCAAUAUUACGCACU | -0.651 ± 0.14 | -0.218 ± 0.14 |
| UGAUAGCAAUAUUACGCCGG | -1.5 ± 0.22 | 0.564 ± 0.23 |
| UGAUAGCAAUAUUACGCGUG | -1.18 ± 0.072 | -0.0417 ± 0.078 |
| UGAUAGCAAUAUUACGGACC | -1.26 ± 0.26 |  |
| UGAUAGCAAUAUUACGGCAA | -1.36 ± 0.15 | -0.418 ± 0.15 |
| UGAUAGCAAUAUUACGGCUU | -1.2 ± 0.19 | 0.584 ± 0.17 |
| UGAUAGCAAUAUUACGGGAG | -3.64 ± 0.29 | -2.19 ± 0.21 |
| UGAUAGCAAUAUUACGGUAA |  | -1.62 ± 0.35 |
| UGAUAGCAAUAUUACGGUCC | -0.857 ± 0.1 | 0.318 ± 0.14 |
| UGAUAGCAAUAUUACGGUUA | -0.585 ± 0.067 | -0.467 ± 0.085 |
| UGAUAGCAAUAUUACGUAAC | -3.41 ± 0.17 | -2.76 ± 0.22 |
| UGAUAGCAAUAUUACGUCAA | -2.44 ± 0.18 | -0.767 ± 0.16 |
